Experimental findings from publication PMC7293037, “Fuse to defuse: a self-limiting ribonuclease-ring nuclease fusion for type III CRISPR defence” (Nucleic Acids Research, 2020) are described below.

For data set [1], the system named is Csx1-Crn2 H495A (Marinitoga piezophila). The experiment in a line: EMSA. The note with it: apparent; both CARF and Crn2 sites intact, no cA4 cleavage in Crn2 site; cyclic tetra-adenylate, head-to-tail closed ring (no free 5' or 3' end); EMSA: 10 nM labelled cA4, 20 mM Tris-HCl pH 7.5, 150 mM NaCl, 2 mM MgCl2, 2 uM BSA, 10 min at 25 C; native 15% PAGE in 1x TBE at 28 C. For orientation: In EMSA bound probe runs differently from free probe, usually more slowly.

The subject of data set [2] is Csx1-Crn2 S452Y (Marinitoga piezophila). Kind of data set: EMSA. Particulars: cyclic tetra-adenylate, head-to-tail closed ring (no free 5' or 3' end); EMSA: 10 nM labelled cA4, 20 mM Tris-HCl pH 7.5, 150 mM NaCl, 2 mM MgCl2, 2 uM BSA, 10 min at 25 C; native 15% PAGE in 1x TBE at 28 C.

For the sequence AAAA [cA4 (cyclic tetra-adenylate)], the values for the Kd in data set [1] and in data set [2] were 20 nM and 1000 nM, respectively.
